We go through 2 substances from PMC4681436.

As usually defined, the Km is the concentration of substrate that gives half-maximal velocity. For orientation: kcat means the number of substrate molecules converted per active site and unit of time at saturation. As usually defined, the kcat/Km is the turnover number divided by the Michaelis constant. As usually defined, the stoichiometry N is a count of units in the complex or per binding partner.

The test system of one data set is CCCC(=O)N[C@H]1CCOC1=O. Nature of the data set: purified protein. As to conditions: 1 mM Hepes pH 7.5, 30 μM ZnSO4, 1% methanol, dizinc enzyme.
A further data set concerns CC(C)(C)OC(=O)NC1CCOC1=O. The data set can be described thus: purified protein. As to conditions: 1 mM Hepes pH 7.5, 30 μM ZnSO4, 1% methanol, dizinc enzyme.
In data set [1] the test system is CCCCCCCCCC(=O)N[C@H]1CCOC1=O. Nature of the data set: purified protein. The settings on record: 1 mM Hepes pH 7.5, 30 μM ZnSO4, 1% methanol, dizinc enzyme.
The test system of data set [2] is CCCCCCC(=O)N[C@H]1CCOC1=O. The data set can be described thus: purified protein. As to conditions: 1 mM Hepes pH 7.5, 30 μM ZnSO4, 1% methanol, dizinc enzyme.
Data set [3] deals with O=C(/C=C/c1ccccc1)N[C@H]1CCOC1=O. The data set can be described thus: purified protein. The settings on record: 1 mM Hepes pH 7.5, 30 μM ZnSO4, 1% methanol, dizinc enzyme.
Another data set deals with CCCCCC(=O)N[C@H]1CCOC1=O. Nature of the data set: purified protein. The settings on record: 1 mM Hepes pH 7.5, 30 μM ZnSO4, 1% methanol, dizinc enzyme.
For a further data set, the system named is CCCCC(=O)N[C@H]1CCOC1=O. The data set can be described thus: purified protein. As to conditions: 1 mM Hepes pH 7.5, 30 μM ZnSO4, 1% methanol, dizinc enzyme.
Data set [4] relates to CCCCCCCC(=O)N[C@H]1CCOC1=O. The data set can be described thus: purified protein. As to conditions: 1 mM Hepes pH 7.5, 30 μM ZnSO4, 1% methanol, dizinc enzyme.
Data set [5] has as its system CCCCCCCCCCCC(=O)N[C@H]1CCOC1=O. The data set can be described thus: purified protein. As to conditions: 1 mM Hepes pH 7.5, 30 μM ZnSO4, 1% methanol, dizinc enzyme.
The test system of data set [6] is CCCCCC(=O)CC(=O)N[C@H]1CCOC1=O. Nature of the data set: purified protein. As to conditions: 1 mM Hepes pH 7.5, 30 μM ZnSO4, 1% methanol, dizinc enzyme.
Data set [7] deals with AidC, N-acyl-L-homoserine lactone (AHL) lactonase from Chryseobacterium sp. strain StRB126 (Chryseobacterium sp. strain StRB126). The data set can be described thus: SEC-MALS.

Values joined by “and” are separate entries in the source; they are usually repeats but may differ in a detail not shown here. Equal values may be shown once.

Consider AidC (Chryseobacterium sp. StRB126), for which the Km worked out at 470 ± 60 µM with CCCC(=O)N[C@H]1CCOC1=O; 740 ± 70 µM in the data set on CC(C)(C)OC(=O)NC1CCOC1=O; 12 ± 4 µM in [1]; 47 ± 5 µM in data set [2]; 470 ± 80 µM in data set [3]; 61 ± 4 µM in the data set with CCCCCC(=O)N[C@H]1CCOC1=O. Moreover, the Km in the data set on CCCCC(=O)N[C@H]1CCOC1=O was found to be 130 ± 20 µM; in data set [4] it was 83 ± 10 µM; in [5], 7 ± 4 µM; in data set [6] it was 130 ± 20 µM. Moreover, the kcat was determined as 39 ± 2 s⁻¹ with CCCC(=O)N[C@H]1CCOC1=O; 44 ± 1 s⁻¹ with CC(C)(C)OC(=O)NC1CCOC1=O; 5.2 ± 0.4 s⁻¹ in data set [1]; 80 ± 2 s⁻¹ in data set [2]; 25 ± 2 s⁻¹ in [3]; 59 ± 1 s⁻¹ in the data set on CCCCCC(=O)N[C@H]1CCOC1=O. Moreover, the kcat in the data set with CCCCC(=O)N[C@H]1CCOC1=O was found to be 57 ± 3 s⁻¹; in [4], 45 ± 3 s⁻¹; in [5], 0.4 ± 0.05 s⁻¹; in data set [6] it was 28 ± 1 s⁻¹. In addition, the specificity constant (kcat/Km) with CCCC(=O)N[C@H]1CCOC1=O worked out at 83000 M⁻¹ s⁻¹; in the data set with CC(C)(C)OC(=O)NC1CCOC1=O, 59000 M⁻¹ s⁻¹; in data set [1], 430000 M⁻¹ s⁻¹; in [2], 1.7e+06 M⁻¹ s⁻¹; in data set [3], 53000 M⁻¹ s⁻¹; in the data set with CCCCCC(=O)N[C@H]1CCOC1=O, 970000 M⁻¹ s⁻¹. The kcat/Km was determined as 440000 M⁻¹ s⁻¹ in the data set on CCCCC(=O)N[C@H]1CCOC1=O, 540000 M⁻¹ s⁻¹ in data set [4], 57000 M⁻¹ s⁻¹ in data set [5] and 220000 M⁻¹ s⁻¹ in data set [6].
Turning to “AidC, N-acyl-L-homoserine lactone (AHL) lactonase from Chryseobacterium sp. strain StRB126 (enzyme)”, in data set [7], the stoichiometry N is 2 and 4.
